From patent US20240425607A1 (COMPUGEN, published 2024)

Legend:
[1] = target: T1, mouse IL-18BP (construct not stated) (mouse, UniProt Q9Z0M9 29-193, limits assumed); experiment: KinExA, solution equilibrium
T1 construct: also called mIL18-BP
T1 sequence (looked up): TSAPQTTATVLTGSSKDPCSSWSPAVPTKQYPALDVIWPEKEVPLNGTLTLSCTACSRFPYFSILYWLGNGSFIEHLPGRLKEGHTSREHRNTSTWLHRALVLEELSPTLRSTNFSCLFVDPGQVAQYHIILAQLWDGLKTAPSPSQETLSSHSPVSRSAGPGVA

[2] = target: T2, cynomolgus monkey IL-18BP (construct not stated) (cynomolgus monkey); experiment: KinExA, solution equilibrium
T2 construct: also called cyno IL18BP; cyno IL-18BP

[3] = target: T3, human IL-18BP (recombinant, construct not stated) (human, UniProt O95998 31-194); experiment: KinExA, solution equilibrium
T3 construct: also called hIL-18BP; human monomeric IL18BP
T3 sequence: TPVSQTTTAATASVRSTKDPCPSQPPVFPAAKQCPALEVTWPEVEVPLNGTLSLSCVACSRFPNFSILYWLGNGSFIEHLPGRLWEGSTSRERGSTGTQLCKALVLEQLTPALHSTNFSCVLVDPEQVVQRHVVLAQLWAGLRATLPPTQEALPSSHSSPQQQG

[4] = target: T2, cynomolgus monkey IL-18BP (construct …); experiment: KinExA (figure legend; the text prints 208 fM)
mouse IL18-BP-Fc = target: T4, mouse IL18-BP-Fc (mouse, UniProt Q9Z0M9 29-193, limits assumed); experiment: Biacore T100; mouse IL18BP-Fc captured on anti-human Fc, Fab 300-2.21 nM in solution
T4 construct: R&D cat; 122-BP is named for the AbD35328 SPR; also called mouse IL18-BP-Fc (cat. 122-BP, R&D); mouse IL18-BP Fc fusion protein
T4 sequence (looked up): T1 sequence (looked up)

B1: mouse IL-18 (ligand, UniProt P70380 36-192, looked up)
chain: NFGRLHCTTAVIRNINDQVLFVDKRQPVFEDMTDIDQSASEPQTRLIIYMYKDSEVRGLAVTLSVKDSKMSTLSCKNKIISFEEMDPPENIDDIQSDLIFFQKRVPGHNKMEFESSLYEGHFLACQKEDDAFKLILKKKDENGDKSVMFTLTNLHQS
notes: also called mIL-18; mouse IL-18 biotinylated (Sino Biological)
Kd [1]: ~3.7 pM

B2: ADI-71739 (antibody, V domains shown)
VH: QLQLQESGPGLVKPSETLSLTCTVSGGSISSPDYPWGWIRQPPGKGLEWIGSIYYQGATYYNPSLKSRVTISVDTSKNQFSLKLSSVTAADTAVYYCARGPYRQLFDYWGQGTLVTVSS
VL: DIQMTQSPSSVSASVGDRVTITCRASQGISSWLAWYQQKPGKAPKLLIYAASSLQSGVPSRFSGSGSGTDFTLTISSLQPEDFATYYCQQGSVFPYTFGGGTKVEIK
Kd [2]: ~0.208 pM
Kd [3]: ~0.291 pM
Kd [4]: 0.209 pM

B3: ADI-71739 Fab fragment (Fab, V domains shown)
VH: B2 VH
VL: B2 VL
notes: Used for the Biacore measurement on mouse IL18BP-Fc; also called anti-IL18BP Fab
Kd (mouse IL18-BP-Fc): ~4000 pM
